Measurements from PMC6220480.

Biological target: NKG2D-based chimeric antigen receptor of CYAD-01 cells (full length human NKG2D fused to the CD3zeta signalling domain) (UniProt P26718)

Molecule	cytokine secretion by CYAD-01 cells cultured with plate-bound ligand [µg/mL]
MICA (major histocompatibility complex class I chain-related A), recombinant (from UniProt Q29983 24-383) (ligand)	> 0.25
MICB (major histocompatibility complex class I chain-related B), recombinant (from UniProt Q29980 23-383) (ligand)	> 0.25
ULBP1 (UL16 binding protein 1), recombinant (ligand) GWVDTHCLCYDFIITPKSRPEPQWCEVQGLVDERPFLHYDCVNHKAKAFASLGKKVNVTKTWEEQTETLRDVVDFLKGQLLDIQVENLIPIEPLTLQARMSCEHEAHGHGRGSWQFLFNGQKFLLFDSNNRKWTALHPGAKKMTEKWEKNRDVTMFFQKISLGDCKMWLEEFLMYWEQMLDPTKPPSLAPG	> 5
ULBP3 (UL16 binding protein 3), recombinant (ligand) DAHSLWYNFTIIHLPRHGQQWCEVQSQVDQKNFLSYDCGSDKVLSMGHLEEQLYATDAWGKQLEMLREVGQRLRLELADTELEDFTPSGPLTLQVRMSCECEADGYIRGSWQFSFDGRKFLLFDSNNRKWTVVHAGARRMKEKWEKDSGLTTFFKMVSMRDCKSWLRDFLMHRKKRLEPTAPPTMAPG	> 5
ULBP2 (UL16 binding protein 2), recombinant (ligand) GRADPHSLCYDITVIPKFRPGPRWCAVQGQVDEKTFLHYDCGNKTVTPVSPLGKKLNVTTAWKAQNPVLREVVDILTEQLRDIQLENYTPKEPLTLQARMSCEQKAEGHSSGSWQFSFDGQIFLLFDSEKRMWTTVHPGARKMKEKWENDKVVAMSFHYFSMGDCIGWLEDFLMGMDSTLEPSAGAPLAMSS	> 5
